Data: article PMC6385209

Experiment: mouse vaccination, whole-cell ELISA for CPS14-specific IgG
Conditions: glycan gained; control: unglycosylated ComP

## ComP: CPS14-ComP bioconjugate
  other: immunogenicity: increases
